PMC6293271, “Bactericidal/Permeability-Increasing Protein Is an Enhancer of Bacterial Lipoprotein Recognition” (Frontiers in Immunology, 2018)
Ends that are not written are not given here.

Assays:
Conditions in all cases: both partners purified
[1] = biological target: T1, recombinant bactericidal/permeability-increasing protein (rBPI) (human, UniProt P17213 32-487, labelled with NT647 (NHS labelling kit) in the MST experiments only); assay: ELISA; BPI microtiter binding assay, competition: 20 nM BPI pre-incubated 30 min with increasing lipopeptide, loaded on LPS biotin (2 μg/ml) on streptavidin plates, 1 h 37°C; 150 mM NaCl, 50 mM HEPES, 1 g/l BSA; bound BPI detected with anti-human BPI antibody
T1 construct: also called rBPI NT647
T1 sequence (looked up): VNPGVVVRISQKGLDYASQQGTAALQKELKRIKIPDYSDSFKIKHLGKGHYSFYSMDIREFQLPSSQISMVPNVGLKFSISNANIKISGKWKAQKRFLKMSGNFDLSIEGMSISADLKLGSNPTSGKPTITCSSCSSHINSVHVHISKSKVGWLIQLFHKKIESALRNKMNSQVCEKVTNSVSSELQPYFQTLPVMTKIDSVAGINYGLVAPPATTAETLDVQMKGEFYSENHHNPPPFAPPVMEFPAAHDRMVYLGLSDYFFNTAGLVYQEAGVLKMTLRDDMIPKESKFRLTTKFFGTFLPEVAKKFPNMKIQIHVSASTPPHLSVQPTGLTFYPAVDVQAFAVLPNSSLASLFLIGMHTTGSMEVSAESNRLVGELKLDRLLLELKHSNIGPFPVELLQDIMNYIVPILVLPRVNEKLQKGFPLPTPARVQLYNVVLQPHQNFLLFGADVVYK

[2] = biological target: T1, recombinant …; assay: NanoDSF (thermal shift)
[3] = biological target: T1, recombinant …; assay: MST

B1: PamCSK4 (peptide)
peptide: CSKKKK
modifications: not fully specified
notes: also called mono-acylated lipopeptide; source: synthetic peptide; bought: EMC Microcollections
[1]
  binding result: binds

B2: (R)-Pam2CSK4 (peptide)
peptide: CSKKKK
modifications: not fully specified (residue 1); printed as (R)-Pam2CSK4
notes: also called di-acylated lipopeptide; source: synthetic peptide; bought: EMC Microcollections
[2]
  binding result: binds

B3: (R)-Pam3CSK4 (peptide)
peptide: CSKKKK
notes: also called tri-acylated bLP; source: synthetic peptide; bought: EMC Microcollections
[3]
  Kd: 162 ± 23.5 nM
